Results published in the supplement of paper PMC9170038.

Tested on: MS2 coat protein
Assay: apparent KD of MS2 coat protein; higher = weaker reporter binding
Conditions: Eterna round: R107
Procedure, shortened: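 Each design's apparent KD comes from the median of binding-curve fits to its normalised clusters. Those clusters carried RNA switches transcribed on-chip from Illumina sequencing clusters. SNAP-549-labelled MS2 coat protein was titrated onto them in twofold steps (0.7 or 1.5 nM to 3 µM; per step 0.8–1.5 h down to 10–20 min). Conditions were 100 mM Tris-HCl pH 7.5, 80 mM KCl, 4 mM MgCl2, without or with constant ligand.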

[1] = input ligand: theophylline 20 uM
[2] = input ligand: tryptophan 2.4 mM
[3] = input ligand: theophylline 2 mM

Row | Sequence | apparent KD of MS2 coat protein (input ligand: arginine 13.2 mM) [nM] | apparent KD of MS2 coat protein [1] [nM] | apparent KD of MS2 coat protein [2] [nM] | apparent KD of MS2 coat protein [3] [nM] | apparent KD of MS2 coat protein (input ligand: none) [nM]
1 | GGUAGCAGGACUGAUACCAGUCCAGCGAAUCAUACGACGCAACAUGAGGAUCACCCAUGUGACCCUUGGCAGCAGACUGCUACCG [Same State Theophylline B GF 28] | 29.4 | 24.8 | 26.7 | – | –
2 | UUAUAAGUACCGGUCCUCAGAUCCUCAUGACGAGGACCGGUACGGCCGCCACUCGAAACAUGAGGAUCACCCAUGUAAUAAUACC [Brourdmod12] | 36.6 | 71.5 | – | 54.2 | –
3 | UUCGUUUGCGGAAGGAGCGACGGACAUCGGUGAACAACGCACAUGAGGAUCACCCAUGUACGUCAGGUAGGUCGCCGCUAAGAGU [XArg-B3] | 29.3 | 134 | 73.6 | 375 | 105
4 | GCAUCCUAGUCGGCCGCCACUGCAGGAUCGGCGGCAGAUCCUCAACAUGAGGAUCACCCAUGUAGCAGGACCGGGACUAGGAUGC [(Trp1)-(TM)''-(TM)'-(Ms2)-(Trp2)_Design2] | 36.3 | 80.3 | 99.8 | 48.1 | 91.6
5 | GCGGUCCACUUGGAUACCAGCAGAUUAAUAAACAUGAGGAUCACCCAUGUAAGCGCCUUGUGCCCUUGGCAGCCAGGGUGGUCAG [theeternabot_sameState_MS2_Theo_B_50] | 55.5 | 136 | 88.4 | – | –
6 | AGCGACAUGCGUGAUACCAGCUACAUGAGGAUCACCCAUGUACGUCAGUAAUGACUGUGUAGCCCUUGGCAGCAUAAUGCAUGUC [Exclusion - Theophylline B (Freestyle 18)] | 36.1 | 55.8 | 33.3 | – | –
7 | GCUAGCCGAAAGGCUAGCAAGGCUACAGAAGGAGCGUGCGAAAGCACAGGUAGGUCGCUGAGCUUGAGGAUCACCCAAGUUGCCU [SSAA - Alter Amptam #1 V+V2] | 26.2 | 57.2 | 64 | 48.6 | 66.7
8 | UUCACAUGGUAUGAAUAUACAUAUAAGAAACGAGGACCGGUACGGCCGCCACUCGUGCCGGAAACAUGAGGAUCACCCAUGUGUU [AK1.1 Exclusion TrypA mod IceBolt] | 27 | 55.9 | – | 64.8 | –
9 | GGGCAAGAGGGAAGGAGCGUCGGCUGAGUAACAUGAGGAUCACCCAUGUAGCACAUAGUGUGGCAGGUAGGUCGCCCUCUGCCCU [SS-ArgB7] | 17.5 | 16.9 | 13.2 | 13.7 | 11.3
10 | AGGCUUCGCAUAGGAAAACUAUGUGAAGCCCGAGGACCGGUACGGCCGCCACUCGUCCUCAACAUGAGGAUCACCCAUGUAAUAA [Mat - Exclusion - Trytophan A - D1] | 24.5 | 41.6 | 28.8 | 24.6 | 15.4
11 | UAUCCACAUGAGGAUCACCCAUGUAAGGAAGGAGCGGUGAAUGCACCAGGUAGGUCGCCUUGCUGAGGACAGCCGGUGGAUUCGU [Exclusion - Arginine A (Freestyle 24)] | 14.7 | 17.9 | 16.2 | 21.9 | 17.7
12 | UUUACGGGAAACCGAACUAAACAAAGGGAAGGAGCGCCAAACAAGGCAGGUAGGUCGCCCACAUGAGGAUCACCCAUGUGUUGGG [Exclusion Arginine A GF 25] | 32.6 | 67.9 | 53.2 | 64 | 60.3
13 | UGUAUGGACUGAAGGAGCGACUCAAAAUAACAUGAGGAUCACCCAUGUAAGGCGAAAGCCGGUCAGGUAGGUCGCAGUCCAUACU [ArgBX 3] | 13.7 | 16.1 | 11.6 | 10.6 | 11.3
14 | UGUACAUGAGGAUCACCCAUGUUACGCGAUACCAGACAUGAGAGUGUCCCUUGGCAGCGUGGAGCUGAUACGGCGGGAAGCCGGA [#10 SameState-TheophyllineA] | 16.1 | 50.2 | 45.9 | – | –
15 | GGGAAAGAAUGUGAUACCAGAGAACCGGUCUCCAUCAAUAUACAUGAGGAUCACCCAUGUCUCCCUUGGCAGCACCAUCAUCAAA [Exclusion Theophylline B GF 27] | 21 | 28.3 | 22 | – | –
16 | AUAUAUACAUGAGGAUCACCCAUGUUAUUUCGAGGACCGGUACGGCCGCCACUCGAUAGAGUGGAAGUAACAUUUGUUAGAUGAU [JR_SSTryptoA_Sub013] | 12.8 | 17 | – | 16.3 | –
17 | GAUGAACUAUAUGAUACCAGACAACAUGAGGAUCACCCAUGUGAAUGUCGUCCUCUGCCUGUCCCUUGGCAGCGUAUAGUUUAUC [XTheo B #15] | 29.3 | 67.6 | 20.3 | – | –
18 | AUGUCGUUGAAUAUAGCGGCUUGGUGUGAUACCAGAAUGAUCUAAUUCCCUUGGCAGCAUUACAUGAGGAUCACCCAUGUUCCAG [SSTheo A #21] | 23.6 | 47.4 | 48.7 | 57.3 | 39.1
